Test results reported in PMC7417555, “Comparative structural analyses and nucleotide-binding characterization of the four KH domains of FUBP1”.

Experiments:
[1] = molecular target: FUBP1 KH3-4 (UniProt Q96AE4 275-443); assay: ITC; 150 mM NaCl; range given for the three tandems; ITC: 25 mM HEPES pH 7.5, 50 mM NaCl (150 mM for tandem and KH1-4), 0.5 mM TCEP, 20 C; native PAGE: 200 uM protein, 5x ssDNA, 25 mM HEPES pH 7.5, 50 mM NaCl, 0.5 mM TCEP, 4 C, 0.5x TBE (KH4 0.5x TAE); details: protein: recombinant; tags: His6 removed by TEV
[2] = molecular target: FUBP1 KH1-2 (UniProt Q96AE4 100-251); assay: as above; details: protein: recombinant; tags: His6 removed by TEV
[3] = molecular target: FUBP1 KH2-3 (UniProt Q96AE4 185-339); assay: as above; details: protein: recombinant; tags: His6 removed by TEV
[4] = molecular target: FUBP1 KH1-4 (UniProt Q96AE4 100-443); assay: ITC; 150 mM NaCl; ITC: 25 mM HEPES pH 7.5, 50 mM NaCl (150 mM for tandem and KH1-4), 0.5 mM TCEP, 20 C; native PAGE: 200 uM protein, 5x ssDNA, 25 mM HEPES pH 7.5, 50 mM NaCl, 0.5 mM TCEP, 4 C, 0.5x TBE (KH4 0.5x TAE); details: protein: recombinant; tags: His6 removed by TEV
[5] = molecular target: T1, FUBP1 KH3 (UniProt Q96AE4 275-339); assay: ITC; 50 mM NaCl; ITC: 25 mM HEPES pH 7.5, 50 mM NaCl (150 mM for tandem and KH1-4), 0.5 mM TCEP, 20 C; native PAGE: 200 uM protein, 5x ssDNA, 25 mM HEPES pH 7.5, 50 mM NaCl, 0.5 mM TCEP, 4 C, 0.5x TBE (KH4 0.5x TAE); details: protein: recombinant; tags: His6 removed by TEV
[6] = molecular target: T2, FUBP1 KH4 (UniProt Q96AE4 376-443); assay: ITC; 50 mM NaCl; Kd only in Fig 3C; ITC: 25 mM HEPES pH 7.5, 50 mM NaCl (150 mM for tandem and KH1-4), 0.5 mM TCEP, 20 C; native PAGE: 200 uM protein, 5x ssDNA, 25 mM HEPES pH 7.5, 50 mM NaCl, 0.5 mM TCEP, 4 C, 0.5x TBE (KH4 0.5x TAE); details: protein: recombinant; tags: N-terminal His6 kept in native PAGE; removed by TEV in general protocol
[7] = molecular target: T3, FUBP1 KH1 (UniProt Q96AE4 100-164); assay: as above; details: protein: recombinant; tags: His6 removed by TEV
[8] = molecular target: T4, FUBP1 KH2 (UniProt Q96AE4 185-251); assay: as above; details: protein: recombinant; tags: His6 removed by TEV
[9] = molecular target: T4, FUBP1 KH2; assay: ITC; 50 mM NaCl; preferred over fragment 8; ITC: 25 mM HEPES pH 7.5, 50 mM NaCl (150 mM for tandem and KH1-4), 0.5 mM TCEP, 20 C; native PAGE: 200 uM protein, 5x ssDNA, 25 mM HEPES pH 7.5, 50 mM NaCl, 0.5 mM TCEP, 4 C, 0.5x TBE (KH4 0.5x TAE); details: protein: recombinant; tags: His6 removed by TEV
[10] = molecular target: T2, FUBP1 KH4; assay: ITC; 50 mM NaCl; no preference between fragments 7 and 8; ITC: 25 mM HEPES pH 7.5, 50 mM NaCl (150 mM for tandem and KH1-4), 0.5 mM TCEP, 20 C; native PAGE: 200 uM protein, 5x ssDNA, 25 mM HEPES pH 7.5, 50 mM NaCl, 0.5 mM TCEP, 4 C, 0.5x TBE (KH4 0.5x TAE); details: protein: recombinant; tags: N-terminal His6 kept in native PAGE; removed by TEV in general protocol
[11] = molecular target: T1, FUBP1 KH3; assay: EMSA; ITC: 25 mM HEPES pH 7.5, 50 mM NaCl (150 mM for tandem and KH1-4), 0.5 mM TCEP, 20 C; native PAGE: 200 uM protein, 5x ssDNA, 25 mM HEPES pH 7.5, 50 mM NaCl, 0.5 mM TCEP, 4 C, 0.5x TBE (KH4 0.5x TAE); details: protein: recombinant; tags: His6 removed by TEV
[12] = molecular target: T3, FUBP1 KH1; assay: as above; details: protein: recombinant; tags: His6 removed by TEV
[13] = molecular target: T2, FUBP1 KH4; assay: as above; details: protein: recombinant; tags: N-terminal His6 kept in native PAGE; removed by TEV in general protocol
[14] = molecular target: T4, FUBP1 KH2; assay: as above; details: protein: recombinant; tags: His6 removed by TEV

T4 sequence (Q96AE4 185-251): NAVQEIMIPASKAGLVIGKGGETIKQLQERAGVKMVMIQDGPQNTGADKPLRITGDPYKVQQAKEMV
T2 sequence (Q96AE4 376-443): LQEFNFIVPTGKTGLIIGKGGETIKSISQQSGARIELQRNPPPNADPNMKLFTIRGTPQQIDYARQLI
T3 sequence (Q96AE4 100-164): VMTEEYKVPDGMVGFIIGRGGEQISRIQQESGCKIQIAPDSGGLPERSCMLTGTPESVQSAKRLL
T1 sequence (Q96AE4 275-339): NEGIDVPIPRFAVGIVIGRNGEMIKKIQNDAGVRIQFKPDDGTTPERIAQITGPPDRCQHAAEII
FUBP1 KH2-3, sequence (Q96AE4 185-339): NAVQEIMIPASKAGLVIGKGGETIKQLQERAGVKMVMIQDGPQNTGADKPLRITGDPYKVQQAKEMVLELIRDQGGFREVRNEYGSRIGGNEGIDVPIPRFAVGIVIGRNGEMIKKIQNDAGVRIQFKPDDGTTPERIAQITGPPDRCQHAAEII
FUBP1 KH1-4, sequence (Q96AE4 100-443): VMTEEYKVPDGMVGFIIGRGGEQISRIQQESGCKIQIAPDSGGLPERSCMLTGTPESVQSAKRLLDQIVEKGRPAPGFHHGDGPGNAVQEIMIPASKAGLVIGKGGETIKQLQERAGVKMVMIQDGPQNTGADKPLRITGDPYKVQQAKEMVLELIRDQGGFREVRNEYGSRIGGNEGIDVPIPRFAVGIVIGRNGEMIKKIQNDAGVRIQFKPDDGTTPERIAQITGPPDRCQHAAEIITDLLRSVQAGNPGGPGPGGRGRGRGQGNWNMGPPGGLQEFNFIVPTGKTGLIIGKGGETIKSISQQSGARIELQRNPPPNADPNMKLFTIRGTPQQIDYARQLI
FUBP1 KH1-2, sequence (Q96AE4 100-251): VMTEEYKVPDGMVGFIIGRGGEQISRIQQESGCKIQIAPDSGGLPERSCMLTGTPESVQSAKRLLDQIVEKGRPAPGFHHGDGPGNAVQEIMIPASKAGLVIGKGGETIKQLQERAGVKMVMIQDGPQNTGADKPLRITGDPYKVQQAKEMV
FUBP1 KH3-4, sequence (Q96AE4 275-443): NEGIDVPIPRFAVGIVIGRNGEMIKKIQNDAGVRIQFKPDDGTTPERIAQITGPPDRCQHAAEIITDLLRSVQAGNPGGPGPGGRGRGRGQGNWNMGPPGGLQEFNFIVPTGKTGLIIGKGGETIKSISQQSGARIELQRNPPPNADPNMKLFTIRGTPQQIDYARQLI

For ATGTATATTCCCTCGGGATTTTTTATTTTGTGTTATTCCACGGCATG (ssDNA) [47-mer c-Myc FUSE], the Kd [1] was roughly 5.29 µM, the Kd [2] was roughly 5.29 µM and the Kd [3] was roughly 5.29 µM. For the same binder, the Kd [4] was roughly 0.085 µM.

In the case of TTGTGTTA (ssDNA) [FUSE fragment 8, 8-mer (ITC)], the Kd [5] is reported as 17 µM, the binding signal [6] is reported as > 5 fold weaker than KH3 (at least) and the binding signal [7] is reported as > 5 fold weaker than KH3 (at least). For the same binder, the binding signal [8] was > 5 fold weaker than KH3 (at least).

TATTTTGT (ssDNA) [FUSE fragment 7, 8-mer (ITC)]: binds [9]; binds [10].

TTTGTGTTAA (ssDNA) [FUSE fragment 8, 10-mer (native PAGE)]: binds [11]; binds [12].

CCCTCGGGAA (ssDNA) [FUSE fragment 4, 10-mer]: no binding [13]; no binding [14].

TTCCACGGAA (ssDNA) [FUSE fragment 10, 10-mer]: no binding [13]; no binding [14].
